Laboratory results taken from patent publication US20210221867A1 (Novo Nordisk, published 2021).
Positions of bridges follow the written chain, without caps; N, C: chain ends. Non-standard residues stand in square brackets, D forms with d. Nle = CCCC[C@H](N)C(=O)O

Legend:
human MC1 receptor [1] = target: T1, human MC1 receptor (human, UniProt Q01726 1-317); experiment: cell-based or functional assay
human MC4 receptor [2] = target: T2, human MC4 receptor (human, UniProt P32245 1-332); experiment: cell-based or functional assay
T2 sequence (P32245 whole entry): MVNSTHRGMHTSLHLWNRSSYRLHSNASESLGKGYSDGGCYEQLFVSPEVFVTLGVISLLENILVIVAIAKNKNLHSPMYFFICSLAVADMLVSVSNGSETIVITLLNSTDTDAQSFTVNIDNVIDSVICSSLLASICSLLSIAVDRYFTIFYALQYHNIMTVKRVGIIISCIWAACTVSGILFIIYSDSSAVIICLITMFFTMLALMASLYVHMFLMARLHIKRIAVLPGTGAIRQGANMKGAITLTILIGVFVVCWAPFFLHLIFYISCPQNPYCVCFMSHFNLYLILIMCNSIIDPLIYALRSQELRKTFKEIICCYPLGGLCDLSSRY

human MC1 receptor [3] = target: T1, human MC1 receptor; experiment: SPA competition binding, displacement of 125I-NDP-α-MSH, BHK membranes with human MC1R
Protocol: (§1) The SPA Binding assay was performed in 96-well white opaque plates. Each well contained: 0.5 mg PVT-WGA SPA beads, MC1 receptor expressing membrane diluted to give approximately 10% specific tracer binding, 50.000 dpm ¹²⁵I-NDP-α-MSH and relevant dilutions of test compound. The final volume in each well was 200 μl. […] Plates were incubated overnight (22-24 hours) at room temperature before counting for 2 minutes per well, using a TopCount NXT scintillation counter. Displacement of radio ligand is measured as reduction in light emission from SPA beads, and IC₅₀ values are calculated by nonlinear regression analysis of sigmoidal dose-response curves in GraphPad Prism (GraphPad Software, La Jolla, Calif., USA).

human MC4 receptor [4] = target: T2, human MC4 receptor; experiment: SPA competition binding, displacement of 125I-NDP-α-MSH, BHK membranes with human MC4R
Protocol: as §1, with “MC4” for “MC1”

T1 sequence (Q01726 whole entry): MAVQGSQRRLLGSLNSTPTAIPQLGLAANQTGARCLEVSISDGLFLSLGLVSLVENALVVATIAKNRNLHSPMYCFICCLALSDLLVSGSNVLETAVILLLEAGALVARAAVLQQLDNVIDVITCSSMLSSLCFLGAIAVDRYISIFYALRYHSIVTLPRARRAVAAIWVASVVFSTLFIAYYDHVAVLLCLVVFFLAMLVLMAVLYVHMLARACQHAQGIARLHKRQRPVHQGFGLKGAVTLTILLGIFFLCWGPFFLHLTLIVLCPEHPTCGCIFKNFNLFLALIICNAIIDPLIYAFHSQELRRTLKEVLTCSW

B1: Ac-Arg-c[Cys-Pro-His-D-Phe-His-Trp-Cys]-Pro-Pro-D-Arg-Glu-Nle-D-Arg-D-Arg-NH2 (peptide)
peptide: Ac-RCPH[dF]HWCPP[dR]E[Nle][dR][dR]-NH2
modifications: disulfide 2-8
SMILES: CCCC[C@H](NC(=O)[C@H](CCC(=O)O)NC(=O)[C@@H](CCCNC(=N)N)NC(=O)[C@@H]1CCCN1C(=O)[C@@H]1CCCN1C(=O)[C@@H]1CSSC[C@H](NC(=O)[C@H](CCCNC(=N)N)NC(C)=O)C(=O)N2CCC[C@H]2C(=O)N[C@@H](Cc2c[nH]cn2)C(=O)N[C@H](Cc2ccccc2)C(=O)N[C@@H](Cc2c[nH]cn2)C(=O)N[C@@H](Cc2c[nH]c3ccccc23)C(=O)N1)C(=O)N[C@H](CCCNC(=N)N)C(=O)N[C@H](CCCNC(=N)N)C(N)=O
notes: Synthetic cyclic peptide; also called Chem. 5
B1 was tested, and the “MC1R cAMP EC50” value (human MC1 receptor [1]) was 172 nM, the “MC4R cAMP EC50” value (human MC4 receptor [2]) was 0.22 nM and the IC50 (human MC1 receptor [3]) was 39.7 nM. For the same binder, the IC50 (human MC4 receptor [4]) was 0.23 nM.
